Reference: article PMC5526940 (Scientific Reports, 2017)

T1: Phaseolus vulgaris leucoagglutinin (Phaseolus vulgaris, UniProt P05087 21-272, TRITC label)
T1 construct: Phaseolus vulgaris leucoagglutinin; also called PHA-L; source: bought: EY Laboratories or Vector Laboratories (TRITC-labelled)
T1 sequence: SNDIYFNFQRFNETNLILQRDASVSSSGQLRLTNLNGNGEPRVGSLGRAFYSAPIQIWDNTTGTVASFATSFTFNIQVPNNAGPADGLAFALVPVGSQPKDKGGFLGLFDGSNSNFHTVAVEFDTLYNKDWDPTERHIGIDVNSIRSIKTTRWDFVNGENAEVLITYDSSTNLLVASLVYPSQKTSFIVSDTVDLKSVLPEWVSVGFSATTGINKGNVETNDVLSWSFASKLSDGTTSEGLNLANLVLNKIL

T2: chicken egg white ovalbumin (chicken, UniProt P01012 1-386)
T2 construct: Printed on the microarray at 0.5 mg/mL; source: bought: Sigma-Aldrich
T2 sequence (looked up): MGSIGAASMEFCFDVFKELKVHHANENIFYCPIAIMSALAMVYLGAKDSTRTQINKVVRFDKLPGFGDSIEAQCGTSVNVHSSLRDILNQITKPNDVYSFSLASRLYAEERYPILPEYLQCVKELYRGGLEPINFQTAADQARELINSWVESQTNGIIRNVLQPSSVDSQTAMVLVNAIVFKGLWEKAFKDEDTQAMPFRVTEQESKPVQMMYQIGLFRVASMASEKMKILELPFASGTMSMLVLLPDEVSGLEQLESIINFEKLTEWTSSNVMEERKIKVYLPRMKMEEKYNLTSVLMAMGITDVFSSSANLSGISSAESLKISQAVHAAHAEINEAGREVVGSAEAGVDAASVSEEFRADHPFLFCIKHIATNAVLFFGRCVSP

B1: chicken egg white ovomucoid (natural protein, UniProt P01005 25-210, looked up)
chain: AEVDCSRFPNATDKEGKDVLVCNKDLRPICGTDGVTYTNDCLLCAYSIEFGTNISKEHDGECKETVPMNCSSYANTTSEDGKVMVLCNRAFNPVCGTDGVTYDNECLLCAHKVEQGASVDKRHDGGCRKELAAVSVDCSEYPKPDCTAEDRPLCGSDNKTYGNKCNFCNAVVESNGTLTLSHFGKC
notes: Printed on the microarray at 0.5 mg/mL; also called OVM; source: bought: Sigma-Aldrich
B2: Phaseolus vulgaris erythroagglutinin (natural protein)
chain: ASQTSFSFQRFNETNLILQRDATVSSKGQLRLTNVNDNGEPTLSSLGRAFYSAPIQIWDNTTGAVAASPTSFTFNIDVPNNSGPADGLAFVLLPVGSQPKDKGGLLGLFNNYKYDSNAHTVAVEFDTLYNVHWDPKPRHIGIDVNSIKSIKTTTWDFVKGENAEVLITYDSSTKLLVASLVYPSLKTSFIVSDTVDLKSVLPEWVIVGFTATTGITKGNVETNDILSWSFASKLSDGTTSEALNLANFALNQIL
modifications: TRITC label
notes: Phaseolus vulgaris erythroagglutinin; also called PHA-E; source: bought: EY Laboratories or Vector Laboratories (TRITC-labelled)

How the values were obtained:
Experiment in all cases: peptide or protein array
Conditions in all cases: both partners purified
[1] = biological target: B2
[2] = biological target: T1, Phaseolus vulgaris leucoagglutinin
[3] = biological target: T2, chicken egg white ovalbumin

| Binder | binding result [1] | binding result [2] | binding result [3] |
| --- | --- | --- | --- |
| B1 | binds | binds | – |
| B2 | – | – | binds |
